Test results: PMC3185003
pKd: −log10 of the molar value.

Key:
[1] = molecular target: ABD_(TNF1) displayed on staphylococcal cells; experiment: flow cytometry on cells; S. carnosus cells displaying ABD-variants incubated 1 h at RT in PBSP pH 7.4 with twelve concentrations of biotinylated TNF-α (4.3-12900 nM; streptavidin-Alexa Fluor 488) or HSA-Alexa 488 (1.25-2500 nM; 10-20000 nM for ABD_(TNF1)); MFI fitted to a 1:1 model; apparent KD for TNF-α (monomer concentration)
[2] = molecular target: ABD_(TNF2) displayed on staphylococcal cells; experiment: as above
[3] = molecular target: ABD_(T002); experiment: SPR; ProteOn XPR36; ABD-molecules immobilized by amine coupling on GLM or GLC chips (about 800-1500 RU); HSA (7-1200 nM) or TNF-α (1-100 nM) injected, 50 µl/min, 25°C, PBS with 0.1% Tween 20; at least triplicates, two chips, two days; apparent KD for TNF-α (monomer concentration)
[4] = molecular target: ABD_(HT015); experiment: as above
[5] = molecular target: ABD_(T001); experiment: as above
[6] = molecular target: ABD_(T004); experiment: as above
[7] = molecular target: ABD_(HT016); experiment: as above
[8] = molecular target: non-randomized ABD displayed on staphylococcal cells (not stated (streptococcal)); experiment: flow cytometry on cells; S. carnosus cells displaying ABD-variants incubated 1 h at RT in PBSP pH 7.4 with twelve concentrations of biotinylated TNF-α (4.3-12900 nM; streptavidin-Alexa Fluor 488) or HSA-Alexa 488 (1.25-2500 nM; 10-20000 nM for ABD_(TNF1)); MFI fitted to a 1:1 model; apparent KD for TNF-α (monomer concentration)
[9] = molecular target: human serum albumin (human) (UniProt P02768); experiment: SPR; BIAcore 2000; HSA immobilized (2000 RU); ABD-variants injected in duplicates at about 1-3000 nM (up to 250 nM for ABD); 25°C, HBS-EP

Chain of biotinylated TNF-α (P01375 77-233): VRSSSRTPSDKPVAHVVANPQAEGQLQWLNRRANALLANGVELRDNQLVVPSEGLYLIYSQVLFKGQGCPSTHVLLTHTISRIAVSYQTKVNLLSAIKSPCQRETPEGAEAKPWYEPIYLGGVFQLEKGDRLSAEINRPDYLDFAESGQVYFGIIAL

Row | pKd [2] | pKd [3] | pKd [5] | pKd [7] | Substance | further results
1 | 6.23 | – | – | – | biotinylated TNF-α (from UniProt P01375 77-233) (ligand) | pKd [1]: 6.57
2 | – | 6.19 | 6.72 | 7.17 | human serum albumin (from UniProt P02768 25-609) (natural protein) | pKd [4]: 7.46; pKd [6]: 6.68
3 | 7.64 | – | – | – | HSA conjugated to Alexa Fluor 488 (from UniProt P02768 25-609) (natural protein) | pKd [8]: 7.72
4 | – | 8.54 | 8.28 | 8.35 | tumor necrosis factor-α (from UniProt P01375 77-233) (ligand) | –
5 | – | – | – | – | non-randomized ABD (alkali-stabilized albumin-binding domain from streptococcal protein G) (domain or fragment) | pKd [9]: 8.28; koff [9]: 0.0009 s⁻¹; kon [9]: 170000 M⁻¹ s⁻¹
